One may read the EC50 as the concentration that produces a half-maximal response.

The values that follow come from patent US12497460B2, “Anti-MSR1 antibodies and methods of use thereof” (REGENERON PHARMACEUTICALS, INC., priority 2018, dated 2025).

Numbering of substitutions follows the chain as printed. Names may count otherwise.

T1: His9-hMSR1 (human MSR1 extracellular domain) (Homo sapiens, UniProt P21757)
T1 construct: human MSR1 extracellular domain expressed with a N-terminal nonahistidine tag; His9 (nonahistidine) (N); purchased R&D Systems 2708-MS
T1 sequence (P21757 77-451 limits assumed): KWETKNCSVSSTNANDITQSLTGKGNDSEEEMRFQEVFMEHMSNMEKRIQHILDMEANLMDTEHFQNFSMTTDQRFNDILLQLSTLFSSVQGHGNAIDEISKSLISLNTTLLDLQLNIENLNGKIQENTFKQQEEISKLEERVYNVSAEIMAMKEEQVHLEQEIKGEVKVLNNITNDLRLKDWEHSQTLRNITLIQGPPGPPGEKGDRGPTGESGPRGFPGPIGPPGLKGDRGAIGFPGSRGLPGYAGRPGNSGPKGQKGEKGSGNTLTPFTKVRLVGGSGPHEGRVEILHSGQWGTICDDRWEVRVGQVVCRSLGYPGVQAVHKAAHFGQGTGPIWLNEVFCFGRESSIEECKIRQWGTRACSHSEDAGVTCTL

B1: H1H27734P-N297Q-LP1 (conjugate)
VH: EVQLVESRGGLVQPGGSLRLSCAASGFTFSSYAMSWVRQAPGKGLEWVSAISGSGGSTFYADSVKGRFTISRDNSKNTVYLQMNSLRAEDTAVYYCAKALVLRFLEWLGDYWGQGTLVTVSS
VL: DIQMTQSPSTLSASVGDRVTITCRASQSISSWLAWFQQKPGKAPKLLIYKASSLESGVPSRFSGSGSGTEFTLTISSLQPDDFATYYCQQYKSYWTFGQGTKVEIKR
B2: H1H27739P-N297Q-LP1 (conjugate)
VH: EVQLVESGGGLVQPGGSLRLSCTASGFTFSSYAMSWVRQAPGKGLEWVSAISGTGSSTYFTDSVKGRFAISRDNSKNTLYLQMNSLRAEDTAVYYCAKDGEWLSTVTLFDYWGQGTLVTVSS
VL: EIVMTQSPATLSVSPGERATLSCRASQSVSSNLAWYQQKPGQAPRLLIYGASTRATGIPARFSGSGSGTDFTLTISSLQSEDFALYYCQQYFIWPPHPTFGPGTKVDIKR
B3: H1H27731P-N297Q-LP1 (conjugate)
VH: QLQLQESGPGLVKPSETLSLTCTVSGGSISRISYYWGWIRQPPGKGLEWIGSIYDSGSTYYNPSLKSRVTISIDTSKNQFSLKLSSVTAADTAVYYCVRYSSSSAFAFDYWGQGTLVTVSS
VL: DIQMTQSPSSVSASVGDRVTITCRASQGISSWLAWYQQKPGKAPKLLIYAASSLQSGVPSRFSGSGSGTDFTLTISSLQPEDFATYYCQQANSFPFTFGPGTKVDIKR
B4: H1H27754P-N297Q-LP1 (conjugate)
VH: EVQLVESGGGLVQPGGSLRLSCAASGFTFRTYAMTWVRQAPGKGLDWVSAITGDGGNTYYADSVKGRFTISRDNSKNTLYLQMNSLRAEDTAIYYCAKDQRFSFALYYFDYWGQGTLVTVSS
VL: B3 VL with K42N, S52F, S93N, F96W, P100Q, D105E
B5: H1H27747P-N297Q-LP1 (conjugate)
VH: QVQLVESGGAVVQPGRSLRLSCAASGFTFSYYGMHWVRQAPGKGLEWVAVISYDGSKKYYADSVKGRFTISRDNSKNTLYLQMNSLRAEDTAVYYCAKDLTVDFYYGMDVWGQGTTVTVSS
VL: B3 VL with A51T, V58A, Y87F, F96Y, P100Q, V104L, D105E
B6: H1H27729P-N297Q-LP1 (conjugate)
VH: QVQLVESGGGLVKPGGSLRLSCAASGFIFSDYYMSWIRQAPGKGLEWVSYISSSGTTIYGDSVKGRFTMSRDNAKNSLYLQMNSLRAEDTAVYYCARNYALFDYWGQGTLVTVSS
VL: DIQMTQSPSSLSASVGDRVTITCQASQDISKYLNWYQQKPGKAPKLLIYYTSNLETGVPSRFSGSGSGTDFTFTISSLQPEDIATYYCHQSDYLPFTFGPGTKVDIKR
B7: H1H21234N-N297Q-LP3 (conjugate)
VH: QVQLQESGPGLVKPSETLSLTCTVTGGSISRNYWSWIRQPPGKGLEWIGYIYYSGSIDYNPSLKSRVTISVDTSKNQFSLKLSSMTAADTAVYYCARDRWNWKYGMDVWGQGTTVIVSS
VL: EIVLTQSPGTLSLSPGERATLSCRASQTVRNNYLAWYHQKPGQAPRLLIYGASSRATGIPDRFSGSGSGTDFTLTISRLEPEDFTVYYCHQYGNSPWTFGQGTKMEIKR

In the first test the target is T1, His9-hMSR1 (human MSR1 extracellular domain). In words: Biacore T200 surface plasmon resonance binding kinetics of anti-MSR1 antibody-drug conjugates and parental antibodies. Particulars: 25° C.; Table 19, antibody-LXR ADCs and unconjugated antibodies. As to the method:
The MSR1 antibodies disclosed herein were conjugated to various liver X receptor (LXR) payloads or various steroid payloads. This example describes how equilibrium dissociation constant (KD) values for human MSR1 reagents binding to human anti-MSR1 antibody-drug conjugates and their corresponding unconjugated parental antibodies were determined using a real-time surface plasmon resonance-based Biacore T200 biosensor.
All binding studies were performed in 10 mM HEPES, 300 mM NaCl, 3 mM EDTA, and 0.05% v/v Surfactant Tween-20, pH 7.4 (HBS-ET) running buffer at 25° C. The Biacore CM4 sensor chip surface was first derivatized by amine coupling with the goat anti-human Fcγ specific polyclonal antibody (Jackson ImmunoResearch Laboratories, Cat #BR-1008-39) to capture anti-MSR1 monoclonal antibodies. Binding studies were performed on human MSR1 extracellular domain expressed with a N-terminal nonahistidine tag (His9-hMSR1; R&D Systems, Cat #2708-MS).
The association rate (ka) and dissociation rate (kd) were determined by fitting the real-time binding sensorgrams to a 1:1 binding model with mass transport limitation using Scrubber 2.0c curve-fitting software. Binding dissociation equilibrium constant (KD) and dissociative half-life (t½) were calculated from the kinetic rates as: […]
Binding kinetics parameters for His9-hMSR1 binding to different anti-MSR1 antibody-LXR ADCs and their unconjugated parental antibodies at 25° C. are shown in Table 19. “LP1” represents a linker-payload for which the payload structure is provided in Example 11.
The binding studies were repeated with anti-MSR1 antibody H1H21234-N297Q and steroid linker payloads (LPs). “LP3” represents a linker-payload for which the structure is provided in Example 23, and “LP13” represents a linker-payload for which the structure is provided in Example 24.
(Surface plasmon resonance follows binding to a sensor surface in real time, without labels.)
With B1, the ka was determined as 69300 M⁻¹ s⁻¹.
For the molecule B2, the ka is 88800 M⁻¹ s⁻¹.
For the molecule B3, the ka is 128000 M⁻¹ s⁻¹.
For B4, the ka turned out to be 177000 M⁻¹ s⁻¹.
On to B5, for which the ka came out at 136000 M⁻¹ s⁻¹.
On the same count and under the same terms, to B6 belongs 54700 M⁻¹ s⁻¹.

Staying with this test, now noted: 25° C.; Table 19; * = no dissociation observed, kd manually fixed at 1.00E−05.
Consider B1, for which the kd was 0.000449 s⁻¹.
As to B2, the kd was 0.000722 s⁻¹.
Turning to B3, the kd was 1.00E−05* s^−1.
As to B4, the kd is 1.00E−05* s^−1.
Same read-out and setting: the figure for B5 is 0.000203 s⁻¹.
As for B6, the kd is 0.000718 s⁻¹.

The same test, now with this note: 25° C.; Table 20, antibody-steroid ADCs and unconjugated antibody.
On to B7, for which the ka came to 417000 M⁻¹ s⁻¹.

The same test, now with this note: 25° C.; Table 20; * = no dissociation observed, kd manually fixed at 1.00E−05.
Regarding B7, the kd is 1e-05 s⁻¹.

Another test deals with LXR (THP1/LXR-Luc cells). In words: LXR-luciferase reporter bioassay (Example 31). The class given is cell-based, human. The following applies: differentiated THP1/LXR-Luc cells, 48 hours. An excerpt: Generation of assay cell line. To test the efficacy of anti-MSR1 antibody-LXR conjugates in vitro, a cell-based LXR responsive luciferase reporter assay was developed. To generate the assay cell line, a LXR regulated luciferase reporter gene [Cignal Lenti LXR Reporter (luc) kit (Qiagen, Cat #CLS-001 L)] was transduced into THP1 cells, and cells were selected for two weeks in puromycin. The lentivirus expresses the firefly luciferase gene under the control of a minimal CMV promoter and tandem repeats of the LXR transcriptional response element. The resulting cell line is referred to as THP1/LXR-Luc cells.
Assay protocol. THP1/LXR-Luc cells were seeded onto 96 well plates at 40,000 cells/well in media containing RPMI supplemented with 10% FBS and pencillin/streptomycin and subsequently differentiated with 200 nM Phorbol Myristate Acetate (PMA) for 3 days. After the 3-day differentiation period, three-fold serial dilutions of antibody drug conjugates, unconjugated antibodies, or free payloads in fresh media were added to the cells at final concentration ranging from 100 nM to 0.01 nM. Media alone served as a blank control. Forty-eight hours later, luciferase activity was determined after the addition of One-Glo™ reagent (Promega, Cat #E6130) to each well. Relative light units (RLUs) were measured on a Victor luminometer (PerkinElmer) and EC50 values were determined using a four-parameter logistic equation over a 10-point dose response curve (GraphPad Prism). The signal to noise (S/N) was determined by calculating the ratio of RLU of standard one over RLU of standard eight for each of the unconjugated anti-MSR1 antibodies or free payloads. “LP #” represents a linker-payload for which the corresponding structures are provided elsewhere herein, and “P #” represents a payload for which the corresponding structures are provided elsewhere herein.
On the technique in general: A reporter such as luciferase makes a cellular process visible.
As for B1, the EC50 was found to be 5.19 nM.
B2 showed an EC50 of 1.6 nM. This EC50 is about 3.2-fold lower than that of the molecule before.
The same measure, in the same setting: the figure for B3 is 1.46 nM; for B4 it is 1.3 nM.
The same measure, in the same setting: to B5 belongs 4.77 nM; to B6, 1.64 nM.

Staying with this test, now noted: signal to noise, ratio of RLU of standard one over standard eight; 48 hours.
Consider B1, for which the S/N is 17.8.
On the same count and under the same terms, the figure for B2 is 21.0; for B3 it is 15.5; for B4 it is 17.3.
On to B5, for which the S/N is 20.6.
On the same count and under the same terms, to B6 belongs 14.5.
